{
  "source": "paper PMC10652106",
  "about": "“Crosstalk between the tRNA methyltransferase Trm1 and RNA chaperone La influences eukaryotic tRNA maturation”",
  "key": {"[1]": {"target": "T1, Trm1 M24 (nuclear isoform, WT) (Schizosaccharomyces pombe, UniProt Q9P804 24-548)", "T1 sequence": "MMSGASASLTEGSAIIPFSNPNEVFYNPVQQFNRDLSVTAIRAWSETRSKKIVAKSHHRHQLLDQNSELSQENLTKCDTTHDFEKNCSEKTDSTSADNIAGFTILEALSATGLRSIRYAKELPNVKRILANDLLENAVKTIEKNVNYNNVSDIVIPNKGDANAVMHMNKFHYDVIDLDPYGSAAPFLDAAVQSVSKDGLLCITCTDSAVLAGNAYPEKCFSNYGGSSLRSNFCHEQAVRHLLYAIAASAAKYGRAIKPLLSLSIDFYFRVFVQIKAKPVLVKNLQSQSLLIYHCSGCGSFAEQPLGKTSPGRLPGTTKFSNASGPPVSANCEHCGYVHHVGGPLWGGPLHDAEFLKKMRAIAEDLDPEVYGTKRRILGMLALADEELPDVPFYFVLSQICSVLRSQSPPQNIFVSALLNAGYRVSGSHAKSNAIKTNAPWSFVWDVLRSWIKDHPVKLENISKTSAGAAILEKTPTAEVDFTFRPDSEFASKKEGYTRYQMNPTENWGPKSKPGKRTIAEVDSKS", "experiment": "EMSA; replicate 1 of 3; Hill coefficient 7.061; no SAM listed; EMSA: 20 mM Tris-HCl pH 7.6, 100 mM KCl, 0.2 mM EDTA, 1 mM DTT; 32 °C 20 min, ice 2 min; 8% native gel at 4 °C", "details": "protein: recombinant; label: 32P (alpha-ATP, internal); tRNA fold, single strand"}, "[2]": {"target": "T2, Trm1 M24 D201A (catalytic-dead) (Schizosaccharomyces pombe, UniProt Q9P804 24-548, D201A)", "T2 sequence": "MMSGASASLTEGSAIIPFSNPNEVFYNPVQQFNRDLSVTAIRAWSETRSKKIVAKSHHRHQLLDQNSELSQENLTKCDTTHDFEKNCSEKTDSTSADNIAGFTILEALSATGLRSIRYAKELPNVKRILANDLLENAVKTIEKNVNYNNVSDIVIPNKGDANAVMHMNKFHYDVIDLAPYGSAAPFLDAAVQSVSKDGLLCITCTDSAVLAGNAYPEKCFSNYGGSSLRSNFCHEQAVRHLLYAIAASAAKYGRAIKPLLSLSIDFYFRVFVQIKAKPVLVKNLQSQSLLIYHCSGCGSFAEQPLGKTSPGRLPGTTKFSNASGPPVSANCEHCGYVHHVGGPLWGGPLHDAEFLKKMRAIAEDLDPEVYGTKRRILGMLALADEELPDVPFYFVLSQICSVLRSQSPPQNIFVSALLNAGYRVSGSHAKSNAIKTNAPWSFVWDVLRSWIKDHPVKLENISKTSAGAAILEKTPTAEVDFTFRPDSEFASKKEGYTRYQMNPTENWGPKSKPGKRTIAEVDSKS", "experiment": "EMSA; affinity comparable to WT; Kd values not in material; no SAM listed; EMSA: 20 mM Tris-HCl pH 7.6, 100 mM KCl, 0.2 mM EDTA, 1 mM DTT; 32 °C 20 min, ice 2 min; 8% native gel at 4 °C", "details": "protein: recombinant; label: 32P (alpha-ATP, internal); tRNA fold, single strand"}},
  "data": [
    {"binder": "pre-tRNA SerUGA (structured_RNA) RNA: GUCACUAUGUCCGAGUGGUUAAGGAGUUAGACUUGAAUCCUGUCUAGUCAUCUAAUGGGCUUUGCCCGCGCAGGUUCAAAUCCUGCUGGUGACGGUAUUU", "values": [
      {"measurement": "Kd", "setting": "[1]", "result": 576, "unit": "nM"},
      {"measurement": "binding result", "setting": "[2]", "result": "binds"}
    ]}
  ]
}
